Columns and labels:
[1] = biological target: T1, human ROR1 (hROR1) on cells (human, UniProt Q01973 30-937); assay: FACS, HEK293T-hROR1 cells
T1 construct: whole, on cells; the cell line is named under assay; also called HEK293T-hROR1; 293T-hROR1
Protocol: (§1) The binding properties were characterized by FACS. The recombinant antibodies obtained above were serially diluted to 9 different concentrations and incubated for 1 h, and then determined for the binding ability with HEK293T-hROR1, CHO-K1-cynoROR1 and A549 cell lines (endogenously expressing ROR1), respectively. The secondary antibody was then incubated for 1 h. The results are shown in FIG. 4-6 and Table 7-2 below.

Human ROR1-ECD-his = biological target: T2, Human ROR1-ECD-his (human, UniProt Q01973 30-406); assay: ELISA, plate coated with hROR1 ECD-his
T2 construct: extracellular domain; bought, Acrobiosystems RO1-H522y; also called hROR1-ECD-his; hROR1 ECD-his
T2 sequence (Q01973 30-406): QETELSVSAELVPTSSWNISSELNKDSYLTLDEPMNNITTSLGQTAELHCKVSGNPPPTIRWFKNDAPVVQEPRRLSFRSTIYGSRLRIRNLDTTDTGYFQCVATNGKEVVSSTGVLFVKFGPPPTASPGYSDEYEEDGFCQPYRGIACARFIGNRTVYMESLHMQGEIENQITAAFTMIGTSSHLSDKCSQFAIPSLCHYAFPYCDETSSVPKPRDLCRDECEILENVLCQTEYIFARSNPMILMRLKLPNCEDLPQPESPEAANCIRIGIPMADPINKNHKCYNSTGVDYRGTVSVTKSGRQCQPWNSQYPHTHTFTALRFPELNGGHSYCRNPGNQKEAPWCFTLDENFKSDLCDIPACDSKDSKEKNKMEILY
Protocol: (§2) Screening by ELISA assay: 96-well plates (Corning 9018) were coated with 1 μg/mL hROR1 ECD-his/hROR2 ECD-his/mROR1 ECD-his proteins prepared with PBS in Example 1a above and incubated at 4° C. overnight. The liquid was then discarded, and the plates were washed 3 times with PBST, blocked with 5% milk for 2 h at room temperature, and washed 3 times with PBST. The taken supernatant was added at 100 μL/well, and the plates were incubated at room temperature for 1 h, followed by washing 3 times with PBST. 100 μL/well of secondary antibody (Sigma, Cat#: A8592) was added, the plates were incubated at room temperature for 1 h, and then washed. TMB was then added to the plates at 100 μL/well and incubated for 15 min at room temperature. Thereafter, the reaction was terminated and data were read.
(§3) a. Results of ELISA assay (the ELISA assay was performed according to the same procedures as in Example 2c, except that the added samples were recombinant antibodies and the secondary antibody was a-Fc (Genscript, Cat#: A01854))

hROR2ECD-his [2] = biological target: T3, hROR2ECD-his (human, UniProt Q01974 34-403); assay: ELISA, plate coated with hROR2 ECD-his
T3 construct: extracellular domain; bought, Acrobiosystems R02-H52E5; also called huROR2-his
T3 sequence (Q01974 34-403): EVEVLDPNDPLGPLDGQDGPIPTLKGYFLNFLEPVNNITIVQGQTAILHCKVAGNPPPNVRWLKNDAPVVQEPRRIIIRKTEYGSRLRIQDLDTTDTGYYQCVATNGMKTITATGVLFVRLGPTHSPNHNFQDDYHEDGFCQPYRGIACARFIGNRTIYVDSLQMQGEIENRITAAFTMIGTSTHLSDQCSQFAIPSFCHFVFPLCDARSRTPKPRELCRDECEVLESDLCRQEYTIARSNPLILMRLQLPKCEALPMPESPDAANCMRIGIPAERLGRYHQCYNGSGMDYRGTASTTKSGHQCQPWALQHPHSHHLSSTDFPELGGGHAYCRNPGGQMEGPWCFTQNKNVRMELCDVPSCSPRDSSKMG
Protocol: as §2, §3
The corresponding values in the table are the measured median fluorescence intensity (MFI).

[3] = biological target: T1, human ROR1 (hROR1) on cells; assay: FACS, HEK293T-hROR1 cells; cytometer saturated
Protocol: as §1

[4] = biological target: ROR1 (antigen of the KD determination and of the Octet dissociation measurement) (UniProt Q01973 30-403, limits assumed); assay: method not stated (conventional procedures)
Chain of ROR1 (antigen of the KD determination and of the Octet dissociation measurement) (Q01973 30-403 limits assumed): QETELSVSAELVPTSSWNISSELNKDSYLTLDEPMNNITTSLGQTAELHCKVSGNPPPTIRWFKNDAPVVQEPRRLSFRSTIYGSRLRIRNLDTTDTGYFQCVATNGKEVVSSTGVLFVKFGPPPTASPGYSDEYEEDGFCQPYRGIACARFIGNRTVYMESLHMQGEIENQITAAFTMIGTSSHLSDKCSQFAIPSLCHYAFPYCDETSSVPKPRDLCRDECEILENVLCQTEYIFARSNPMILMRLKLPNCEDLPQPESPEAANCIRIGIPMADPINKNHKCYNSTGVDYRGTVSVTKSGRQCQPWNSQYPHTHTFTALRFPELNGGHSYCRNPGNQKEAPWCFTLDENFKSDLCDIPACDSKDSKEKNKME

[5] = biological target: T4, cynomolgus ROR1 (cynoROR1) on CHO-K1 cells (cynomolgus, UniProt A0A2K5WTX7 30-937); assay: FACS, CHO-K1-cynoROR1 cells
T4 construct: whole, on cells; also called CHO-K1-cynoROR1; CHO-K1-cyROR1
Protocol: as §1

hROR2ECD-his [6] = biological target: T3, hROR2ECD-his; assay: ELISA, plate coated with hROR2 ECD-his; remark: listed apart in the source
Protocol: as §2, §3

[7] = biological target: T1, human ROR1 (hROR1) on cells; assay: FACS, A549 cells
Protocol: as §1

T1 sequence (Q01973 30-937): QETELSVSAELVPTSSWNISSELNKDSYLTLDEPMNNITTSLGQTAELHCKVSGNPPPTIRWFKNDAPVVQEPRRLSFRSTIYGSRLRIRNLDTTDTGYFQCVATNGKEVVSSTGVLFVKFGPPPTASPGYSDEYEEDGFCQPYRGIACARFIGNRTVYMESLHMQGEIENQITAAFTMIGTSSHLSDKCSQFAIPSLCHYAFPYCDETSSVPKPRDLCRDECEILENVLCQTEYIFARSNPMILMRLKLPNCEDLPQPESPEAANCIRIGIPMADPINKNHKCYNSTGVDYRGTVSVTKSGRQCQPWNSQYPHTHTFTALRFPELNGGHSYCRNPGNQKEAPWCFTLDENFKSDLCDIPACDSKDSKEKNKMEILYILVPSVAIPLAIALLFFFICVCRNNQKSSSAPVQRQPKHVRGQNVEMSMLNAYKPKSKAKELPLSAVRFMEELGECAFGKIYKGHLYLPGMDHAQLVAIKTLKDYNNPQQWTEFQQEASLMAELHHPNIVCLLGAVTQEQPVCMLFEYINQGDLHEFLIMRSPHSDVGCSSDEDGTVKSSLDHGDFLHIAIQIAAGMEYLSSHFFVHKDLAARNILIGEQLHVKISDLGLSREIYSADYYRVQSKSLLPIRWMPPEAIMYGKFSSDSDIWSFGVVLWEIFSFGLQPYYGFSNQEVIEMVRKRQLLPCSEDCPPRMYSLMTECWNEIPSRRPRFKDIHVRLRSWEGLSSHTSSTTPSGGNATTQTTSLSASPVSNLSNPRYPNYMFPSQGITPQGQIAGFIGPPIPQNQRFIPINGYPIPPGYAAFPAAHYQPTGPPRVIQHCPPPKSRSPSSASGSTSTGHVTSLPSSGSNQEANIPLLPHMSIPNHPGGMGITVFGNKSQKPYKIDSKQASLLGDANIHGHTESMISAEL

Row | Binder | fold lower EC50 than reference PR000374 [1] | ELISA signal (called MFI) (Human ROR1-ECD-his) | binding result (hROR2ECD-his [2]) | MAX(MFI) [3] | Kd [4] | koff [4] | kon [4] | MAX(MFI) [5] | ELISA signal (called MFI) (hROR2ECD-his [6]) | MAX(MFI) [7]
1 | PR001360 (antibody, human IgG1, kappa, V domains shown, fully human IgG1, kappa) VH: QVQLVESGGGVVQPGRSLRLSCAASGFTFSSYGMHWVRQAPGKGLEWVAVIWYDGSDKDSVDSVKGRFTISRDDSKNTLYLQMNSLRAEDTAVYYCAREQARSFDLWGRGTLVTVSS VL: DIQMTQSPSTLSASVGDRVTITCRASQTINNWLAWYQQKPGKAPKLLIYKASSLESGVPSRFSGSGSGTEFTLTISSLQPDDFATYYCQQYNIYSPMYTFGQGTKVEIKR | 10 fold | 2.44 | no binding | 262000 MFI | 0.804 nM | 0.000248 s⁻¹ | 309000 M⁻¹ s⁻¹ | 25000 MFI | 0.0315 | 4050 MFI
2 | PR001363 (antibody, human IgG1, kappa, V domains shown, fully human IgG1, kappa) VH: QVQLVESGGGVVQPGRSLRLSCAASGFSFSSYAMHWVRQAPGRGLEWVAVIWYDGGDEDSIDSVKGRFTISRDDSKNTLYLQMNSLRAEDTAVYYCAREQARSFDLWGRGTLVTVSS VL: DVVMTQSPSTLSASVGDRVTITCRASQTINNWLAWYQQKPGKAPKLLIYKASSLESGVPSRFSGSGSGTEFTLTISSLQPDDFATYYCQQYNSYSPMYTFGQGTKVEIKR | 10 fold | 2.45 | no binding | 262000 MFI | 2.9 nM | 0.00101 s⁻¹ | 348000 M⁻¹ s⁻¹ | 17200 MFI | 0.0305 | 3700 MFI
3 | PR001365 (antibody, human IgG1, kappa, V domains shown, fully human IgG1, kappa) VH: QVQLVQSGGGVVQPGRSLRLSCAASGFTFSSYGMHWVRQAPGKGLEWVAVIWYDGSDKDYADSVKGRFTISRDTSKNTLYLQMNSLRAEDTAVYYCAREQARSFDLWGRGTLVTVSS VL: DIQMTQSPYSLSASVGDRVTITCRASQTINNWLAWYQQKPGKAPKLLIYKASSLESGVPSRFSGSGSGTEFTLTISSLQPDDFATYYCQQYKLYSPMYTFGQGTKVEIKR | 10 fold | 2.35 | no binding | 262000 MFI | 0.237 nM | 7.72e-05 s⁻¹ | 325000 M⁻¹ s⁻¹ | 22100 MFI | 0.0285 | 4400 MFI
4 | PR001367 (antibody, human IgG1, kappa, V domains shown, fully human IgG1, kappa) VH: QVQLVESGGGVVQPGRSLRLSCAASGFSFSSYAMHWVRQAPGRGLEWVAVIWYDGGDEDYIDSVKGRFTISRDDSKNTLYLQMNSLRAEDTAVYYCAREQARSFDLWGRGTLVTVSS VL: DVVMTQSPSTLSASVGDRVTITCRASQTINNWLAWYQQKPGKAPKLLIYKASSLESGVPSRFSGSGSGTEFTLTISSLQPDDFATYYCQQYNSYSPMYTFGQGTKVEIKR | 10 fold | 2.38 | no binding | 262000 MFI | 3.06 nM | 0.00104 s⁻¹ | 341000 M⁻¹ s⁻¹ | 21200 MFI | 0.0235 | 3450 MFI
5 | PR001368 (antibody, V domains shown, fully human IgG1, kappa) VH: QVQLVESGGGVVQPGRSLRLSCAASGFTFSTYGMHWVRQAPGKGLEWVAVIWYDGSDTDYADSVKGRFTISRDTSKNTLYLQMNSLRAEDTAVYYCAREQARSFDLWGRGTLVTVSS VL: DIVMTQSPSTLSASVGDRVTITCRASQSINSWLAWYQQKPGKAPKLLIYKASSLESGVPSRFSGSGSGTEFTLTISSLQPDDFATYYCQQYKSYSPMYTFGQGTKVEIKR | 10 fold | 2.51 | no binding | 262000 MFI | 2.16 nM | 0.000867 s⁻¹ | 402000 M⁻¹ s⁻¹ | 27800 MFI | 0.0255 | 4210 MFI
6 | PR001371 (antibody, human IgG1, kappa, V domains shown, fully human IgG1, kappa) VH: QVQLVESGGGVVQPGRSLRLSCAASGFTFSSYGMLWVRQAPGKGLEWVAVAWYDGVSEDYADSVKGRFTISRDNSMNTLSLQMNSLRAEDTAVYYCAREQARSFDLWGRGTLVTVSS VL: DIQLTQSPSSLSASVGDRVTITCRASQTINNWLAWYQQKPGKAPKLLIYKASSLESGVPSRFSGSGSGTEFTLTISSLQPDDFATYYCQQYNSYSPMYTFGQGTKVEIKR | 10 fold | 2.38 | no binding | 262000 MFI | 1.76 nM | 0.000525 s⁻¹ | 298000 M⁻¹ s⁻¹ | 28400 MFI | 0.0235 | 4110 MFI
7 | PR001352 (antibody, human IgG1, kappa, V domains shown, fully human IgG1, kappa) VH: EVQLLESGGGVVQPGRSLRLSCAASGFTFSSYGMHWVRQAPGKGLEWVAVKWYDGISQNFADSVKGRFTISRDNSKNTLYLQMNSLRAEDTAVYYCARDLARSFDLWGRGTLVTVSS VL: DIQLTQSPSSLSASVGDRVTITCRASQTINNWLAWYQQKPGKAPKLLIYKASSLESGVPSRFSGSGSGTEFTLTISSLQPDDFATYYCQQYNSYSPMYTFGQGTKVEIKR | 10 fold | 2.48 | no binding | 262000 MFI | 1.51 nM | 0.000476 s⁻¹ | 316000 M⁻¹ s⁻¹ | 30700 MFI | 0.0335 | 4520 MFI
8 | PR001370 (antibody, V domains shown, fully human IgG1, kappa) VH: EVQLLESGGGVVQPGRSLRLSCAASGFTFSSYGMHWVRQAPGKGLEWVAVKWYDGISQNFADSVKGRFTISRDNSKNTLYLQMNSLRAEDTAVYYCARDLARSFDLWGRGTLVTVSS VL: DIVMTQSPSTLSASVGDRVTITCRASQSINNWLAWYQQKPGKAPKLLIYKASSLESGVPSRFSGSGSGTEFTLTISSLQPDDFATYYCQQYNSYSPMYTFGQGTKVDIKR | 10 fold | 2.53 | no binding | 262000 MFI | 3.97 nM | 0.00113 s⁻¹ | 285000 M⁻¹ s⁻¹ | 26000 MFI | 0.0335 | 3920 MFI
9 | PR001358 (antibody, human IgG1, kappa, V domains shown, fully human IgG1, kappa) VH: QVQLVQSGGGVVQPGRSLRLSCAASGFTFSSYAMHWVRQAPGKGLEWVAIMWYDGSNTDYADSVKGRFTISRDTSKNTLFLQMNSLRAEDTAVYYCAREQARSFDLWGRGTLVTVSS VL: DIVMTQSPSTLSASVGDRVTITCRASQSINSWLAWYQQKPGKAPKLLIYKASNLESGVPSRFSGSGSGTEFTLTISSLQPDDFATYYCQQYKSYSPMYTFGQGTKVDIKR | 10 fold | 2.47 | no binding | 262000 MFI | 1.07 nM | 0.000518 s⁻¹ | 482000 M⁻¹ s⁻¹ | 27300 MFI | 0.049 | 4970 MFI
10 | PR001361 (antibody, V domains shown, fully human IgG1, kappa) VH: QVQLVQSGGGVVQPGRSLRLSCTASGFTFSRYGMLWVRQAPGKGLEWVAVAWYDGVSEDYADSVKGRFTISRDNSMNTLSLQMNSLRAEDTAVYYCAREQARSFDLWGRGTLVTVSS VL: DIQLTQSPSTLSASVGDRVTITCRASQSINSWLAWYQQKPGKAPKLLIYKASSLESGVPSRFSGSGSGTEFTLTISSLQPDDFATYYCQQYKSYSPMYTFGQGTKVDIKR | 10 fold | 2.28 | no binding | 262000 MFI | 1.83 nM | 0.00108 s⁻¹ | 590000 M⁻¹ s⁻¹ | 27200 MFI | 0.028 | 4520 MFI
